Series [1] concerns HeLa Kyoto. The series can be described thus: thermal stability score vs G1/S (z-score of summed log2 fold changes over temperatures); higher = more thermally stable than in G1/S.
Series [2] relates to HeLa Kyoto. The series can be described thus: melting temperature (median over replicates), in situ; higher = more thermally stable.
The test system of series [3] is HeLa Kyoto. Put plainly: solubility in G1/S (NP-40 vs SDS abundance) (log2 ratio); higher = more soluble. Particulars: cell cycle stage: G1/S.
For series [4], the system named is HeLa Kyoto. The series can be described thus: solubility change mitosis vs G1/S (difference of NP-40 vs SDS log2 ratios) (log2 ratio difference); higher = more soluble in mitosis.
The mark [5] stands for this setting: cell cycle stage: early G1 (4.5 h after nocodazole release).
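For melting temperature (median over replicates), in situ in this document: HeLa Kyoto cells synchronized by double thymidine or nocodazole block, proteins quantified by TMT10plex mass spectrometry, three independent biological replicates.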
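For solubility change mitosis vs G1/S (difference of NP-40 vs SDS log2 ratios) in this document: synchronized HeLa Kyoto cells (double thymidine block for G1/S, nocodazole release for mitosis), protein amounts in NP-40 versus SDS lysates quantified by mass spectrometry, three biological replicates.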
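For solubility in G1/S (NP-40 vs SDS abundance) in this document: HeLa Kyoto cells arrested at G1/S by double thymidine block, proteins quantified by TMT10plex mass spectrometry in mild NP-40 versus SDS extracts, three biological replicates.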
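For thermal stability score vs G1/S (z-score of summed log2 fold changes over temperatures) in this document: synchronized HeLa Kyoto cells, proteins quantified by TMT10plex mass spectrometry, three biological replicates, mitosis taken 0.5 h after nocodazole release, G1/S directly after double thymidine block.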

With “MTSLYGRHAEKTTDMPKPSAPKVHVQRSVSRDTIAIHFSASGEEEEEEEEEFREYFEEGLDDQSIVTGLEAKEDLYLEPQVGHDPAGPAASPVLADGLSVSQAPAILPVSKNTVKLLESPVPAAQVLSTVPLAVSPGSSSSGPLASSPSVSSLSEQKTSSSSPLSSPSKSPILSSSASTSTLSSAKPFMSLVKSLSTEVEPKESPHPARHRHLMKTLVKSLSTDTSRQESDTVSYKPPDSKLNLHLFKQFTQPRNTGGDSKTAPSSPLTSPSDTRSFFKVPEMEAKIEDTKRRLSEVIYEPFQLLSKIIGEESGSHRPKALSSSASELSNLSSLNGHLESNNNYSIKEEECDSEGDGYGSDSNIPRSDHPKSTGEPTREIELKSSQGSSLKDLGLKTSSLVLEKCSLSALVSKEDEEFCELYTEDFDLETEGESKVDKLSDIPLKPEVLAEDGVVLDSEDEVDSAVQHPELPVKTLGFFIMCVYVYLILPLPHYVSGLFLGIGLGFMTAVCVIWFFTPPSAHKYHKLHKNLRHWNTRSLDIKEPEILKGWMNEIYNYDPETYHATLTHSVFVRLEGGTLRLSKPNKNISRRASYNEPKPEVTYISQKIYDLSDSKIYLVPKTLARKRIWNKKYPICIELGQQDDFMSKAQTDKETSEEKPPAEGSEDPKKPPRPQEGTRSSQRDQILYLFGRTGREKEEWFRRFILASKLKSEIKKSSGVSGGKPGLLPAHSRHNSPSGHLTHSRSSSKGSVEEIMSQPKQKELAGSVRQKMLLDYSVYMGRCVPQESRSPQRSPLQSAESSPTAGKKLPEVPPSEEEEQEAWVNALLGRIFWDFLGEKYWSDLVSKKIQMKLSKIKLPYFMNELTLTELDMGVAVPKILQAFKPYVDHQGLWIDLEMSYNGSFLMTLETKMNLTKLGKEPLVEALKVGEIGKEGCRPRAFCLADSDEESSSAGSSEEDDAPEPSGGDKQLLPGAEGYVGGHRTSKIMRFVDKITKSKYFQKATETEFIKKKIEEVSNTPLLLTVEVQECRGTLAVNIPPPPTDRVWYGFRKPPHVELKARPKLGEREVTLVHVTDWIEKKLEQEFQKVFVMPNMDDVYITIMHSAMDPRSTSCLLKDPPVEAADQP [TEX2]”, the figures for the thermal stability score in the series on HeLa Kyoto [1] (setting [5]) and with HeLa Kyoto [1] (cell cycle stage: mitosis) were -0.212 and -0.23, respectively. Also, the melting temperature amounted to 50.1 °C with HeLa Kyoto [2] (cell cycle stage: G1/S) and 50.4 °C in the series with HeLa Kyoto [2] (cell cycle stage: mitosis). For the same sequence, in the series with HeLa Kyoto [3], the “solubility in G1/S (log2)” value is -0.062. Besides, the “solubility change mitosis (log2)” value with HeLa Kyoto [4] was -0.118.
For “MTTKRSLFVRLVPCRCLRGEEETVTTLDYSHCSLEQVPKEIFTFEKTLEELYLDANQIEELPKQLFNCQSLHKLSLPDNDLTTLPASIANLINLRELDVSKNGIQEFPENIKNCKVLTIVEASVNPISKLPDGFSQLLNLTQLYLNDAFLEFLPANFGRLTKLQILELRENQLKMLPKTMNRLTQLERLDLGSNEFTEVPEVLEQLSGLKEFWMDANRLTFIPGFIGSLKQLTYLDVSKNNIEMVEEGISTCENLQDLLLSSNSLQQLPETIGSLKNITTLKIDENQLMYLPDSIGGLISVEELDCSFNEVEALPSSIGQLTNLRTFAADHNYLQQLPPEIGSWKNITVLFLHSNKLETLPEEMGDMQKLKVINLSDNRLKNLPFSFTKLQQLTAMWLSDNQSKPLIPLQKETDSETQKMVLTNYMFPQQPRTEDVMFISDNESFNPSLWEEQRKQRAQVAFECDEDKDEREAPPREGNLKRYPTPYPDELKNMVKTVQTIVHRLKDEETNEDSGRDLKPHEDQQDINKDVGVKTSESTTTVKSKVDEREKYMIGNSVQKISEPEAEISPGSLPVTANMKASENLKHIVNHDDVFEESEELSSDEEMKMAEMRPPLIETSINQPKVVALSNNKKDDTKETDSLSDEVTHNSNQNNSNCSSPSRMSDSVSLNTDSSQDTSLCSPVKQTHIDINSKIRQEDENFNSLLQNGDILNSSTEEKFKAHDKKDFNLPEYDLNVEERLVLIEKSVDSTATADDTHKLDHINMNLNKLITNDTFQPEIMERSKTQDIVLGTSFLSINSKEETEHLENGNKYPNLESVNKVNGHSEETSQSPNRTEPHDSDCSVDLGISKSTEDLSPQKSGPVGSVVKSHSITNMEIGGLKIYDILSDNGPQQPSTTVKITSAVDGKNIVRSKSATLLYDQPLQVFTGSSSSSDLISGTKAIFKFDSNHNPEEPNIIRGPTSGPQSAPQIYGPPQYNIQYSSSAAVKDTLWHSKQNPQIDHASFPPQLLPRSESTENQSYAKHSANMNFSNHNNVRANTAYHLHQRLGPARHGEMWAISPNDRLIPAVTRSTIQRQSSVSSTASVNLGDPGSTRRAQIPEGDYLSYREFHSAGRTPPMMPGSQRPLSARTYSIDGPNASRPQSARPSINEIPERTMSVSDFNYSRTSPSKRPNARVGSEHSLLDPPGKSKVPRDWREQVLRHIEAKKLEKKHPQTSSSGDPCQDGIFISGQQNYSSATLSHKDVPPDSLMKMPLSNGQMGQPLRPQANYSQIHHPPQASVARHPSREQLIDYLMLKVAHQPPYTQPHCSPRQGHELAKQEIRVRVEKDPELGFSISGGVGGRGNPFRPDDDGIFVTRVQPEGPASKLLQPGDKIIQANGYSFINIEHGQAVSLLKTFQNTVELIIVREVSS [ERBB2IP]”, the thermal stability score with HeLa Kyoto [1] (setting [5]) was determined as 0.246; in the series with HeLa Kyoto [1] (cell cycle stage: mitosis) it was 1.12. Further, the melting temperature was 48.8 °C with HeLa Kyoto [2] (cell cycle stage: G1/S) and 49 °C with HeLa Kyoto [2] (cell cycle stage: mitosis). Moreover, in the series with HeLa Kyoto [3], the “solubility in G1/S (log2)” value was -0.0185. Also, the “solubility change mitosis (log2)” value in the series on HeLa Kyoto [4] is -0.0785.
With “MTTQQIDLQGPGPWGFRLVGGKDFEQPLAISRVTPGSKAALANLCIGDVITAIDGENTSNMTHLEAQNRIKGCTDNLTLTVARSEHKVWSPLVTEEGKRHPYKMNLASEPQEVLHIGSAHNRSAMPFTASPASSTTARVITNQYNNPAGLYSSENISNFNNALESKTAASGVEANSRPLDHAQPPSSLVIDKESEVYKMLQEKQELNEPPKQSTSFLVLQEILESEEKGDPNKPSGFRSVKAPVTKVAASIGNAQKLPMCDKCGTGIVGVFVKLRDRHRHPECYVCTDCGTNLKQKGHFFVEDQIYCEKHARERVTPPEGYEVVTVFPK [PDLIM1]”, the thermal stability score was -1.51 in the series on HeLa Kyoto [1] (setting [5]) and -0.369 with HeLa Kyoto [1] (cell cycle stage: mitosis). Further, the results for the melting temperature with HeLa Kyoto [2] (cell cycle stage: G1/S) and in the series with HeLa Kyoto [2] (cell cycle stage: mitosis) were 55.6 °C and 56 °C, respectively. The “solubility in G1/S (log2)” value in the series with HeLa Kyoto [3] was 0.455. Further, the “solubility change mitosis (log2)” value with HeLa Kyoto [4] was determined as 0.147.
As for “MTVFFKTLRNHWKKTTAGLCLLTWGGHWLYGKHCDNLLRRAACQEAQVFGNQLIPPNAQVKKATVFLNPAACKGKARTLFEKNAAPILHLSGMDVTIVKTDYEGQAKKLLELMENTDVIIVAGGDGTLQEVVTGVLRRTDEATFSKIPIGFIPLGETSSLSHTLFAESGNKVQHITDATLAIVKGETVPLDVLQIKGEKEQPVFAMTGLRWGSFRDAGVKVSKYWYLGPLKIKAAHFFSTLKEWPQTHQASISYTGPTERPPNEPEETPVQRPSLYRRILRRLASYWAQPQDALSQEVSPEVWKDVQLSTIELSITTRNNQLDPTSKEDFLNICIEPDTISKGDFITIGSRKVRNPKLHVEGTECLQASQCTLLIPEGAGGSFSIDSEEYEAMPVEVKLLPRKLQFFCDPRKREQMLTSPTQ [AGK]”, the thermal stability score is -0.493 with HeLa Kyoto [1] (setting [5]) and -1.02 in the series on HeLa Kyoto [1] (cell cycle stage: mitosis). Moreover, the melting temperature in the series on HeLa Kyoto [2] (cell cycle stage: G1/S) and with HeLa Kyoto [2] (cell cycle stage: mitosis) was 53.6 °C throughout. Besides, the “solubility in G1/S (log2)” value with HeLa Kyoto [3] was 0.0337. For the same sequence, in the series with HeLa Kyoto [4], the “solubility change mitosis (log2)” value was -0.034.
On to “MVAPGLVLGLVLPLILWADRSAGIGFRFASYINNDMVLQKEPAGAVIWGFGTPGATVTVTLRQGQETIMKKVTSVKAHSDTWMVVLDPMKPGGPFEVMAQQTLEKINFTLRVHDVLFGDVWLCSGQSNMQMTVLQIFNATRELSNTAAYQSVRILSVSPIQAEQELEDLVAVDLQWSKPTSENLGHGYFKYMSAVCWLFGRHLYDTLQYPIGLIASSWGGTPIEAWSSGRSLKACGVPKQGSIPYDSVTGPSKHSVLWNAMIHPLCNMTLKGVVWYQGESNINYNTDLYNCTFPALIEDWRETFHRGSQGQTERFFPFGLVQLSSDLSKKSSDDGFPQIRWHQTADFGYVPNPKMPNTFMAVAMDLCDRDSPFGSIHPRDKQTVAYRLHLGARALAYGEKNLTFEGPLPEKIELLAHKGLLNLTYYQQIQVQKKDNKIFEISCCSDHRCKWLPASMNTVSTQSLTLAIDSCHGTVVALRYAWTTWPCEYKQCPLYHPSSALPAPPFIAFITDQGPGHQSNVAK [SIAE]”, for which the thermal stability score in the series on HeLa Kyoto [1] (setting [5]) is 1.01; in the series with HeLa Kyoto [1] (cell cycle stage: mitosis) it was -0.521. Besides, the values for the melting temperature with HeLa Kyoto [2] (cell cycle stage: G1/S) and in the series with HeLa Kyoto [2] (cell cycle stage: mitosis) were 58 °C and 57.9 °C, respectively. In addition, the “solubility in G1/S (log2)” value in the series on HeLa Kyoto [3] came to 0.569. Moreover, the “solubility change mitosis (log2)” value in the series on HeLa Kyoto [4] was -0.103.

(Values after the supplement of paper PMC5998384.)
